{"source": "patent US20230055235", "key": {"[1]": {"target": "T1, PD-L1 (programmed death-ligand 1) (Homo sapiens?) (UniProt Q9NZQ7)", "T1 sequence (Q9NZQ7 19-238)": "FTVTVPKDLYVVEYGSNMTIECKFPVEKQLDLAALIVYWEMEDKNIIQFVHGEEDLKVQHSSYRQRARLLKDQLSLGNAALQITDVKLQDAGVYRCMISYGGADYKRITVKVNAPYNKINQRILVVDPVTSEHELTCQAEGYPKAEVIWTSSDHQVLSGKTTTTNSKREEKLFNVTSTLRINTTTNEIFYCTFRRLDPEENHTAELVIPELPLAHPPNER", "test": "filter", "conditions": "37 C"}, "[2]": {"target": "T1, PD-L1 (programmed death-ligand 1)", "test": "inhibition", "conditions": "PD-1/PD-L1 binding ELISA"}}, "data": [{"sequence": "GAGTGACCGTCTGCCTGCCATTTCCTGCTTGCTCTTCCTCCTTTATTTTTCACCTTTCAGCCACACCACCAGCC [PL029]", "values": [{"measurement": "Kd", "setting": "[1]; Bz-dU at every n, Bmax 0.10", "result": 243, "unit": "nM"}]}, {"sequence": "GAGTGACCGTCTGCCTGTGTATGCCGCACGATCGCCCTATTTTGCGAGTTTACTCACAGCCACACCACCAGCC [PL002]", "values": [{"measurement": "IC50", "setting": "[2]; Bz-dU at every n", "result": 31.3, "unit": "nM"}, {"measurement": "Kd", "setting": "[1]; Bz-dU at every n, Bmax 0.05, 40 mM HEPES, 102 mM NaCl, 5 mM KCl", "result": 0.18, "unit": "nM"}]}, {"sequence": "GCCTGTGTATGCCGCACGATCGCCCTATTTTGCGAGTTTACTCACAGCC [PL005]", "values": [{"measurement": "IC50", "setting": "[2]; Bz-dU at every n", "result": 12.6, "unit": "nM"}]}, {"sequence": "TGTATGCCGCACGATCGCCCTATTTTGCGAGTTTACTCA [PL006]", "values": [{"measurement": "IC50", "setting": "[2]; Bz-dU at every n", "result": 9.6, "unit": "nM"}]}, {"sequence": "ATGAAAAGTTTTTGATTGTACCTTAGTGCACTCAACAGTG [PL019]", "values": [{"measurement": "IC50", "setting": "[2]; Bz-dU at every n", "result": 15.3, "unit": "nM"}]}, {"sequence": "ATGAAAAGTTTTTGATTGTACCTTAGTGC [PL004]", "values": [{"measurement": "IC50", "setting": "[2]; Bz-dU at every n", "result": 7, "unit": "nM"}]}, {"sequence": "ATGCCGCACGATCGCCCTATTTTGCGAGTTTAC [PL007]", "values": [{"measurement": "IC50", "setting": "[2]; Bz-dU at every n, anti-PD-L1 antibody 1.2 nM", "result": 4.7, "unit": "nM"}]}, {"sequence": "GAGTGACCGTCTGCCTGATGAAAAGTTTTTGATTGTACCTTAGTGCACTCAACAGTGCAGCCACACCACCAGCC [PL001]", "values": [{"measurement": "IC50", "setting": "[2]; 5-(N-benzylcarboxamide)-2'-deoxyuridine (Bz-dU) at every n", "result": 6, "unit": "nM"}, {"measurement": "IC50", "setting": "[2]; 5-(N-benzylcarboxamide)-2'-deoxyuridine (Bz-dU) at every n, repeat experiment", "result": 10.5, "unit": "nM"}, {"measurement": "Kd", "setting": "[1]; 5-(N-benzylcarboxamide)-2'-deoxyuridine (Bz-dU) at every n, Bmax 0.07", "result": 1.1, "unit": "nM"}]}, {"sequence": "GCCTGATGAAAAGTTTTTGATTGTACCTTAGTGCACTCAACAGTGC [PL017]", "values": [{"measurement": "IC50", "setting": "[2]; Bz-dU at every n", "result": 4, "unit": "nM"}]}, {"sequence": "GCCTGATGAAAAGTTTTTGATTGTACCTTAGTGC [PL003]", "values": [{"measurement": "IC50", "setting": "[2]; Bz-dU at every n", "result": 6.3, "unit": "nM"}]}, {"sequence": "GAGTGACCGTCTGCCTGTTAAGCGGCTAAGTTTTTGATTGTACCTTAGTGCCCTTACCAGCCACACCACCAGCC [PL010]", "values": [{"measurement": "Kd", "setting": "[1]; Bz-dU at every n, Bmax 0.06", "result": 0.93, "unit": "nM"}]}, {"sequence": "GAGTGACCGTCTGCCTGTGTATGCCGCACGATCGCCCTATTTTGCGAGTTTAACTGACAGCCACACCACCAGCC [PL028]", "values": [{"measurement": "Kd", "setting": "[1]; Bz-dU at every n, Bmax 0.06", "result": 1.36, "unit": "nM"}]}, {"sequence": "GCCTGATGAAAAGTTTTTGATTGTACCTTAGTGCACTCAACAGTGCAGCC [PL016]", "values": [{"measurement": "IC50", "setting": "[2]; Bz-dU at every n", "result": 3.3, "unit": "nM"}]}, {"sequence": "AAGTTTTTGATTGTACCTTAGTGC [PL009]", "values": [{"measurement": "IC50", "setting": "[2]; Bz-dU at every n", "result": 4.6, "unit": "nM"}]}]}
